Test results published in the RNAGym collection of RNA variant scans (doi:10.7554/elife.90254).

B1: LINE1-full (parent)
chain: UACGUAGGUGGUUUUCCCCUGAUAGUGCUAAGGGGGCCUGGAAGUUUGGACUGGGCAGAGCUCAACACAGCGUGGCAAAGUGGCUGUGGCUAGACUGCCUCUCUGGAUUCCUCGUCACUCAGCAGGGCAUCUCUGAGAGAAAUGCC

Variants of: B1
Test: self-cleavage, relative activity (ratio to wild type); higher = more cleavage; in vitro, sequencing; the parent is a self-cleaving ribozyme

In order of falling self-cleavage:
1. UACGUAGGUGGUUUUCCCCUGAUAGUGCUAAGGGGGCCUGGAAGUUUGGACUGGGCAGAGCUCAACACAGCGUGGCGAAGUGGCUGUGGCUAGACUGCCUCUCUGGAUUCCUCGUCACUCAGCAGAGCAUCUCUGAGAGAAAUGCC [A77G G126A]  2.42
2. UACGUAGGUGGUUUUCCCCUGAUAGUGCUAAGGGGGCCUGGAAGUUUGGACUGGGCAGAGCUCAACACAGCGAGGCAAAGGGGCUGUGGCUAGACUGCCUCUCUGGAUUCCUCGUCACUCAGCAGGGCAUCUCUGAGAGAAAUGCC [U73A U81G]  1.85
3. UACGUAGGUGGUUUUCCCCUGAUAGUGCUAAGGGGGCCUGGAAGUUUGGACUGGGCAGAGCUCAACACAGCGCGGCAAAGUGGCUGUGGCUAGACUGCCUCUCGGGAUUCCUCGUCACUCAGCAGGGCAUCUCUGAGAGAAAUGCC [U73C U104G]  1.71
4. UACGUAGGUGGUUUUCCCCUGAUAGUGCUAAGGGGGCCUGGAAGUUUGGACUGGGCAGAGCUCAACACAGCGUGGCAAAGUGGCUGUGGCUAGACUGCCUCUCUGGAUUCCUCGUCACUCAGCAGGGCAUCUCCGAGAGAAAUGCU [U134C C146U]  1.65
5. UACGUAGGUGGUUUUCCCCUGAUAGUGCUAAGGGGGCCUGGAAGUCUGGACUGGGCAGAGCUCAACACAGCGUGGCAAAGUGGCUGUGGCUAGACUGCCUCUCUGGAUUCCUCGUCACUCAGCAGGGCAUCUCUGAGAGAAAUGUC [U46C C145U]  1.58
6. UACGUAGGUGGUUUUCCCCUGAUAGUGCUAAGGGGGCCUGGAAGUUUGGACUGGGCAGCGCUCAACACAGCGUGGCAAAGUGGCUGUGGCUAGACUGCCUCUCUGGAUUCCUCGUCACUCAGCAGGGCAUCUCAGAGAGAAAUGCC [A59C U134A]  1.46
7. UACGUAGGUGGUUUUCCCCUGAUAGUGCUAAGGGGGCCUGGAAGUUUGGACUGGGCAGCGCUCAACACAGCGAGGCAAAGUGGCUGUGGCUAGACUGCCUCUCUGGAUUCCUCGUCACUCAGCAGGGCAUCUCUGAGAGAAAUGCC [A59C U73A]  1.45
8. UACGUAGGUGGUUUUCCCCUGAUAGUGCUAAGGGGGCCUGGAAGUUUGGACCGGGCAGAGCUCAACACAGCGUGGCAAAGUGGCUGUGGCUAGACUGCCUCUCUGGAUUCCUCGUUACUCAGCAGGGCAUCUCUGAGAGAAAUGCC [U52C C116U]  1.39
9. UACGUAGGUGGUUUUCCCCAGAUAGUGCUAAGGGGGCCUGGAAGUUUGGACUGGGCAGAGCUCAACACAGCGUGGCAGAGUGGCUGUGGCUAGACUGCCUCUCUGGAUUCCUCGUCACUCAGCAGGGCAUCUCUGAGAGAAAUGCC [U20A A78G]  1.39
10. UACGUAGGUGAUUUUCCCCUGAUAGUGCUAAGGGGGCCUGGAAGUUUGGAUUGGGCAGAGCUCAACACAGCGUGGCAAAGUGGCUGUGGCUAGACUGCCUCUCUGGAUUCCUCGUCACUCAGCAGGGCAUCUCUGAGAGAAAUGCC [G11A C51U]  1.38
11. UACGUAGGUAGUUUUCCCCUGAUAGUGCUAAGGGGGCCUGGAAGUUUGGACUGGGCAGAGCUCAACACAGCGUGGCAAAGUGGCUGUGGCUAGACUGCCUCUCUGGAUUCCUCGUCACUCGGCAGGGCAUCUCUGAGAGAAAUGCC [G10A A121G]  1.37
12. UACGUAGGUGGUUUUCCCCUGAUAGUGCUAAGGGGGCCUGGUAGUUUGGACUGGGCAGAGCUCAACACAGCGUGGCAAAGUGGCUGUGGCUAGACUGCCCCUCUGGAUUCCUCGUCACUCAGCAGGGCAUCUCUGAGAGAAAUGCC [A42U U100C]  1.32
13. UACGUAGGUGGUUUCCCCCUGAUAGUGCUAAGGGGCCCUGGAAGUUUGGACUGGGCAGAGCUCAACACAGCGUGGCAAAGUGGCUGUGGCUAGACUGCCUCUCUGGAUUCCUCGUCACUCAGCAGGGCAUCUCUGAGAGAAAUGCC [U15C G36C]  1.31
14. UACGUAGCUGGUUUUCCCCUGAUAGUGCUAAGGGGGCCUGGAAGUUUGGACUGGGCAGAGCUCAACACAGCGUGACAAAGUGGCUGUGGCUAGACUGCCUCUCUGGAUUCCUCGUCACUCAGCAGGGCAUCUCUGAGAGAAAUGCC [G8C G75A]  1.2
15. UACGUAGGUGGUUUUCCCCUGAUAGUGCUAAGGGGGCCUGGAAGUUUGGACUGGGCAGAGCUCAACACAGCGUGGCAAAGUGGCUGUGGCUAGACUGCCUCUCUGGAUUCCUCGUCACUCAGAAGGGCAUCUCCGAGAGAAAUGCC [C123A U134C]  1.04
16. UACGUAGGUGGUUUUCUCCUGAUAGUGCUAAGGGGGCCUGGAAGUUUGGACUGGGCAGAGCUCAACACAGCGUGGCAAAGUGGCUGUGGCUAGACUGCCUCUCUGGAUUCCUCGUCACUCAGCAGGGCAUCUCUGAGAGGAAUGCC [C17U A140G]  1.02
17. UACGUAGGUGGUUUUCCCCUGAUAGUGCUAAGGGGGACUGGAAGCUUGGACUGGGCAGAGCUCAACACAGCGUGGCAAAGUGGCUGUGGCUAGACUGCCUCUCUGGAUUCCUCGUCACUCAGCAGGGCAUCUCUGAGAGAAAUGCC [C37A U45C]  1.01
18. UACGUAGGUGGUUUUCCCUUGAUAGUGCUAAGGGGGCCUGGAAGUUUGGACUGGGCAGAGCUCAACACAGCGUGGCAAAGCGGCUGUGGCUAGACUGCCUCUCUGGAUUCCUCGUCACUCAGCAGGGCAUCUCUGAGAGAAAUGCC [C19U U81C]  1
19. UACGUAGGUGGUUUUCCCCUGAUAGUGCUAAGGGGGCCUGGAAGUUUGGACUGGGCAGAGCUCAACACAGUGUGGCAAAGUGGCUGUGGCUAGACUGCCUCUCUGGAUUCCUCGUCACUCAGCAGGGCAACUCUGAGAGAAAUGCC [C71U U130A]  1
20. UACGUAGGUGGUUUUCCCCUGAUAGUGCUAAGGGGGCCUGGUAGUUUGGACUGGGCAGAGCUCAACACAGCGGGGCAAAGUGGCUGUGGCUAGACUGCCUCUCUGGAUUCCUCGUCACUCAGCAGGGCAUCUCUGAGAGAAAUGCC [A42U U73G]  0.95
21. UACGUAGGUGGUUUUCCCCUGAUAGUGCUAGGGGGGCCUGGAAGUUUGGACUGGGCAGAGCUCAACACAGCGUGGCAAAGUGGCUGUGGCUUGACUGCCUCUCUGGAUUCCUCGUCACUCAGCAGGGCAUCUCUGAGAGAAAUGCC [A31G A92U]  0.91
22. UACGUAGGAGGUUUUCCCCUGAUAGUGCUAAGGGGGCCUGGAAGUUUGGACUGGGCAGAGCUCAACACAGCGUGGCAAAGUGGCUGUGGCUAGACUGCCUCUCUGGAUUCCUCGUCACUCAGCAGGGUAUCUCUGAGAGAAAUGCC [U9A C128U]  0.9
23. UACGUAGGUGGUUUUCCCCUGAUAGUGCUAAGGGGGCCUGGAAGUUUGGACUGUGCAGAGCUCAACACAGCGUGGCAAAGUGGCUGUGGCUAGACUGCCUCUCUAGAUUCCUCGUCACUCAGCAGGGCAUCUCUGAGAGAAAUGCC [G54U G105A]  0.87
24. UACGUAGGUGGUUUUCCCCUGAAAGUGCUAAGGGGGCCUGGAAGUUUGGACUGGGCAGAGCUCAACACAGCGUGGCAAAGCGGCUGUGGCUAGACUGCCUCUCUGGAUUCCUCGUCACUCAGCAGGGCAUCUCUGAGAGAAAUGCC [U23A U81C]  0.86
25. UACAUAGGUGGUUUUCCCCUGAUAGUGCUAAGGAGGCCUGGAAGUUUGGACUGGGCAGAGCUCAACACAGCGUGGCAAAGUGGCUGUGGCUAGACUGCCUCUCUGGAUUCCUCGUCACUCAGCAGGGCAUCUCUGAGAGAAAUGCC [G4A G34A]  0.66
26. UACGUAGGUGGUUUUCCCCUGAUAGUGCUAAGGGGGCCUGGAAGUUUGGACUGGGCAGAGCUCAACACAGCGUGGCCAAGUGGCUGUGGCUAGACUGCCUCUCUGGAUUCCUCAUCACUCAGCAGGGCAUCUCUGAGAGAAAUGCC [A77C G114A]  0.63
27. UACGUAGGUGGAUUUCCCCUGAUAGUGCUAAGGGGGCCUGGAAGUUUGGACUGGGCAGAGCUCAACACAGCGUGGCAAAGUGGCUGUGGCUAGGCUGCCUCUCUGGAUUCCUCGUCACUCAGCAGGGCAUCUCUGAGAGAAAUGCC [U12A A94G]  0.55
28. UACGUAGGUGGUUUUCCCCUGAUAGUGCUAAGGGGGCCUGGAAGUUUGGACUGGGCAGAGCUCGACACAGCGUGGCGAAGUGGCUGUGGCUAGACUGCCUCUCUGGAUUCCUCGUCACUCAGCAGGGCAUCUCUGAGAGAAAUGCC [A64G A77G]  0.42
29. UACGUAGGUGGUUUUCCCCUGAUAGUGCUAAGGGGGCCUGGAAGUUUGGACUGGGCAGAGCUCAACACAGCGUGGCAAAGUGGCUGUGGCUAGGCUGCCUCUCUGGUUUCCUCGUCACUCAGCAGGGCAUCUCUGAGAGAAAUGCC [A94G A107U]  0.3
30. UACGUAGGUGGUUUUCCCCUGAUAGUGCUAAGGGGGCCUGGAAGUUUGGACUGGGCAGAGCUCUACACAGCGUGGCAAAGUGGCUGUGGCUAGUCUGCCUCUCUGGAUUCCUCGUCACUCAGCAGGGCAUCUCUGAGAGAAAUGCC [A64U A94U]  0.26
31. UACGUAGGUGGUUUUCCCCUGAUAGUGCUAAGGGGGCCUGGAAGUUUGGGCUGGGCAGAGCUCAACACAGCGUGGCAAAGUGGCUGUGGCUAGACUGCCUCUCUGGAUUCCUCGUCACUCAGCAGGGCAUCUCUGAGAGAAAUUCC [A50G G144U]  0.25
32. UACGUAGGUGGUUUUCCCCUGACAGUGCUAAGGGGGCCUGGAAGUUUGGACUGGGCAGAGCUCAACACAGCGUGGCAAAGUGGCUGUGGCUAGACCGCCUCUCUGGAUUCCUCGUCACUCAGCAGGGCAUCUCUGAGAGAAAUGCC [U23C U96C]  0.21
33. UACGUAGGUGGUUUUCCCCUGAUAGUGCUAAGGGGGCCUGGAAGUUUGGACUGGGCAGAGCUCAACACAGCGUGGCAAAGUGGUUGUGGCUAGACUGCCUCUCUGGAUUCCUCGUCACUCAGCAGGGCAUCUCUGUGAGAAAUGCC [C84U A136U]  0.13
34. UACGUAGGUGGUUUUCCCCUGAUAGUGCUAAGGGGGCCUGGAAGUUUGGACUGGGCAGAGCUCAGCACAGCGGGGCAAAGUGGCUGUGGCUAGACUGCCUCUCUGGAUUCCUCGUCACUCAGCAGGGCAUCUCUGAGAGAAAUGCC [A65G U73G]  0.08
35. UACGUAGGUGGUUUUCCCCUGAUAGUGCUAAGGGGGCCUGGAAGUUUGGACUGGGCAGAGUUCAACACAGCGUGGCGAAGUGGCUGUGGCUAGACUGCCUCUCUGGAUUCCUCGUCACUCAGCAGGGCAUCUCUGAGAGAAAUGCC [C61U A77G]  0.06
36. UACGUAGGUGGUUUUCCCCUGAUAGUGCUAAGGGGGCCUGGAAGUUCGGACUGGGCAGAGCUCAACACAGCGUGGCAAAGUGGCUGUGGCUAGACGGCCUCUCUGGAUUCCUCGUCACUCAGCAGGGCAUCUCUGAGAGAAAUGCC [U47C U96G]  0.05
37. UACGUAGGUGGUUUUCCCCUGAUAGUGCUAAGGGGGCCUGGAAGUUUGGACUGGGCAGAACUCAACACAGCGUGGCAAAGUGGCUGUGGCUAGACUGCCUCUCUGGGUUCCUCGUCACUCAGCAGGGCAUCUCUGAGAGAAAUGCC [G60A A107G]  0.03
38. UACGUAGGUGGUUUUCCCCUGAUAGUGCUAAGGGGGCCUGGAAGUUUGGACUGGGCAGAGCUCAACACAGCGUGGCAGAGUGGCUGUGGCUAGACUUCCUCUCUGGAUUCCUCGUCACUCAGCAGGGCAUCUCUGAGAGAAAUGCC [A78G G97U]  0.03
39. UACGUAGGUGGUUUUCCCCUGAUAGUGCUAAGGGGGCCUGGAAGUUUGGACUGGGCAGAGCUCAACACAGCGUGGCUAAGUGGCUGUGGUUAGACUGCCUCUCUGGAUUCCUCGUCACUCAGCAGGGCAUCUCUGAGAGAAAUGCC [A77U C90U]  0.03
